Experiment: yeast display, Sf9 membrane polyspecificity reagent, FACS + sequencing; frameworks hold sequencing errors
Procedure, shortened: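 Galactose induction of a Saccharomyces cerevisiae BJ5465 synthetic nanobody display library ran 36–48 hours. The cells were then stained for 1 hour at 4 °C with 10% biotinylated, detergent-solubilized Sf9 membrane reagent, pulled down on streptavidin microbeads and FACS-sorted into low and high (top ~1%) gates on expression and reagent-binding fluorescence. Labels for polyreactivity follow the gate of origin.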

Sequence	polyreactivity (PSR sort gate)
QVQLVDSGGGLVQAGGSLRLSCAASGLTFIRYAMGWYRQAPGKERELVAAITRGGTRTYYADSVKGRFTISRDNAKNTVYLQMNSLKPEDTAVYYCAALSRYGRFDYWGQGTQVTVSS	high polyreactivity
QVQLVESGGGLVQAGGSLRLSCAASGRTFVVNAMGWYRQAPGKERELVAAIYADSVKGRFTISRDNAKNTVYLQMNSLKPEDTAVYYCAASGGTWVYYRPEYDYWGQGTQVTVSS	low polyreactivity
QVQLVDSVGGLVQAGGSLRLSCAASGLTFLGNAMGWYRQATGKEREFVAGIDRSSVSTYADSVKGRFTISRDNAKNTVYLQMNSLKPEDTEVYYCAVVEYGIWVGWVPYATFGMNYWGQGTQVTVSS	high polyreactivity
QVQLVESGGGLVQAGGSLRLSCAASGFTFAANTMGWYRQAPGKERELVADISGRGDRTSYADSVKGRFTISRDNAKNTVYLQMNSLKPEDTAVYYCAVDIYYYSNVHYYYWGQGTQVTVSS	low polyreactivity
QLQLVESGGGLLQAGGSLRLSCAASGSTFVSNAMGWYRQAPGKERELVATITTSGGSTYYADSVKGRFRNSRDNAKTTVYLQMNSLNPEDTAVYYCNAVYLFCYSGDLDYWGQGTQVTVSS	low polyreactivity
QVQLVESGGGLVQAGGSLRLSCAASGSIFSPYAMGWYRQAPGKERELVAAITWSGGSTYYADSVKGRFTISRDNAKNTVYLQMNSLKPEDTAVYYCAATYYVNAWRYYYWGQGTQVTVSS	high polyreactivity
QVQLVESGGRLVQAGGSLRLSGAASGSTIQTNVMGWYRQAPGKERELLAAISSGGSTNYADSVKGRFTISRDNAKNNVYLQMNSLKPEDTADYYCAKRWPYFRRGKDGYCGQGTQVTVSS	low polyreactivity
QVQLVESGGGLVQAGGSLRLSCAASGRIFLGNAMGWYRQAPGKESELVAAITYSGRSTYYADSVKGRFTISRDNAKNTVYLQMNSLKPEDTAVYYSAARQYWTTDLPFQRYYYWGQGTQVTVSS	low polyreactivity
QVQLVESGGGLVQAGGSLRLSCAASGRTFGTYVMGWYRQAPGKERELVAAITGSGGSTYYADSVKGRFTISRDNAKNTVYLQMNSLKPEDPAVYYCAARAYQHYNWGQGTQVTVSS	high polyreactivity
QVQLVESGGGLVQAGGSLRLCCAASGITFALNAMRWYRQAPGNERELLAAISWSGDSTYYADSVKGRITIARDNAKNTVYLQMNSLKPEDTAVYYCAAVAYLNWTPHYYWGQGTQVTVSS	low polyreactivity
QVQLVESGGGLVQAGGSLRLSCAASGYNFNYAMGWYRQAPGKERELVAAISRRGGSTYYADSVKGRFTISRDNAKNTVYLQMNSLTPEDTAVYYCAARLPGYFGIGDYWGQGTQVTVSS	high polyreactivity
QVQLVESGGGLVQAGGSLRLSCAASGFTFGPYAMGWYRQAPGKERELVAGITWSGASTYYADSVKGRFTISRDNAKNSVYLQMNSLKPEDTAVYYCARYYRLGSRYDYWGQGTQVTVSS	low polyreactivity
QVQLVESGGGLVQAGGSLRLSCAASGSIYGPYAMGWYRQAPGKERELVAAIAESSGSTYYADSVKGRFTISRDNAKNTVYLQMNRMKPEDTAVYYCAAEQITGWSWVWGSWYDYWGQGTQVTVSS	low polyreactivity
QVQLVVSGGGLVQAGGRLRLSCAATGSTFSVNAMGWSRQAPGKERELVAAITRSGGSTYYADSVKGRFTFSRDNAKNSVYLQLNSLKPEDTAVYYCAAEIYPLGEYWGQGTQVTVSS	low polyreactivity
QVQLVESGGGLVQAGGSLRLSCAASGFISYYYAMGWYRQAPGKERELVAAITKSGGSTYYADSVKGRFTIARDNAKNTVSLQMNSLKPEDTAVYYCAAVRSTRNSTSRLYGYWGQGTQVTVSS	low polyreactivity
QVQLVDSGGGLVQAGGSLRLSCDASGITFYDYAMGLYRQAPGKEMEFVASITSSGGYTYYADSVKGRFTISRDNAKNTVYLQMNILKPEDTSVYYCNVRYKRNRWQYDYWGQGTQVTVSS	high polyreactivity

Sequence	polyreactivity (PSR sort gate)
QVQLVESGGGLVQAGGSLRLSCAASGITFPRYVMGWYRQAPGKEREFVAAINYSGGRTYYADSVKGRFTISRDNAKNTVYLQMKSLKPEDTAVYYCAVDLHVWPFWFDYWGQGTQVTVSS	high polyreactivity
QVQLVESGGGLVQAGGSLRLSCAASGSTFGVYDMGWYRQAPGKERELVAAITGNGGRTYYADSVKGRFTISRDNAKNTVYLQMNSLKPEDTAVYYCNARVKRYVYWPYDYWGQGTQVTVSS	high polyreactivity
QVQLVESGGGLVQAGGSLRLSCAASGFTFVVYAMGWYRQAPGKERELVAAISARGGRTYYADSVKGRFTISRDNAKNTVYLQMNSLKPEDTAVYYCAATNQRQTRYDYWGQGTQVTVSS	high polyreactivity
QVQLVESGGGLVQAGGSLRLSCAASGSIFYLYTMGRYRQAPGKERELVAAITNGGSTDYADSVKGRFTISRDNAKNTVYLQMNSLKPEDTAVYYCNADPRYPVDELEYWVTTPYDYWGQGTQVTVSS	low polyreactivity
QVQQHESGGGLVQAGGSLRLTCAASGTISESGLMGWYRQAPGKERELVAGISSGGITNYADSVKGRFTISRDIAINTVYLQMNSPKPEDTAEYWGQGSQVTVSS	low polyreactivity
QVQLVESGGGLVQAGGSLRLSCAASGIILYYNAMGWYRQAPGKERALVAAITTSGVSTYYADSVKGRFTISRDNAKNTVYLQMNSLKPEDTAVYYCNADYLYGRYTYDYWGQGTQVTVSS	low polyreactivity
QVQLVESGGGLVQAGGSLRLSCAASGRTFKYYTMGWYRQAPGKERELVAAISGGGGITNYADSVKGRFTISRDNAKNTVYLQMNSQKPEDTAVYYCYARYNSWRYLAQYNYWGQGTQVTVSS	high polyreactivity
QVQLVESGGGLVQAGGSLRLSCAASGIIFDEYAMGWYIQAPGKERELVAAITRDGGTNYADSVKGRFTISRDNAKNTVYLQMNSLKPEDTAVYYCAKRAYFYYGRYDYWGQGTQVTVSS	low polyreactivity
QVQLVESGGGLVQAGGSLRLSCAASGIIFDWYDMGWYRQAPGKERELVATITSDDGTNYADSVKGRFTIARDNAKNTVYFQLNSLKPEDTAVYYCAKRLIPSLPILQKMDYWGQGTQVTVSS	low polyreactivity
QVQHVESGGGLVQAGGSLRLSCAASGRTFRWYAMGWYRHAPGKERELVAGISRGGGSTTYADSVKGRFTISRDYAKNTVYLQMNSLKPEDTAVYYCAAYWGRTRYYGYDYYYWGQGTQLTVSS	high polyreactivity
QVQLVQSGGGLVQAVGSLRLSCAASGRTFPYYTMGWYRQARGKERELVAAINSSGGRTYYADSVKGRFTISRDNAKNTVYLQMNSLKPEDTAVYYCAKRGYYKYDWGQGTQVTVSS	high polyreactivity
QVQLVESGGGLVQAGGSLRLSCAASGSTLVGYVMGWYRQAPGKERELVAAITTVGSTYYADSVKGRFTISRDNAKNTVYLQMNSLKPEDTAVYYCAADRSDLAEEGYAGYDYWGQGTQVTVSS	low polyreactivity
QVQLVESGGGLVQAGGSLRLSCAASGRIFKVNTMGWYRQAPGKERELVASIRGGGSTNYADSVKGRFTISRDNAKNTVNLQMHSPKPEDTAVYYCAAGTSKPTPIYGYWGQGTQVTVSS	low polyreactivity
QVQLVESGGGLVQAGGSLRLSCAASGGIFYRYAMGWYRQAPGKEREFVASIDVSGGSTHYADSVKGRFTISRDNAKNTVDLQMNSLKPEDTAVHYCAARVYWRSSRYYYWGHGTQVTVSS	high polyreactivity
QDQHVQSGVGIVQAVGSLRLSCAASGFTIPSYAMGWYRMAPGKEREFVAAISWNSGSTYYADSVKGRFTISRDNAKNTVYLQMNSLKPEDTAVYYCNAGAYVRRRYAPGYSFEYDSWGQGTQVTVSS	high polyreactivity
QVHLVESGGCLVQAGGSLRLSCAASGFIFPWYAMGWYRQAPGKERELVAAISSSGGRTYYADSVKGRFTISRDNAKNTVYLQMNSLKPEDTGVYYCNVAYGLSQVYRYNYWGQGSQVTVSS	high polyreactivity
